Target: S275F RSV F protein (Synagis-resistant RSV antigen) (respiratory syncytial virus, UniProt P03420 26-524)
Experiment: ratio of the ELISA Kd values, reference 11L

B1: RSV Protein-1A12 Ab (antibody, V domains shown)
VH: EVQLVESGGGLVQPGGSLRLSCAASGFTFTSSWMSWVRQAPGKGLEWVSEIDGYNGSTYYADSVKGRFTISRDNSKNTLYLQMNSLRAEDTAVYYCARTVPWWGMDYWGQGTLVTVSS
VL: DIQMTQSPSSLSASVGDRVTITCRASQNISNYLAWYQQKPGKAPKLLIYLASSLESGVPSRFSGSGSGTDFTLTISSLQPEDFATYYCQQANSPPRTFGQGTKVEIK
notes: The ELISA detected the antibody with anti-human IgG Fc-HRP, so a human Fc is implied; also called 항체 1A12; 1A12 항체
fold higher affinity for S275F than for 11L: ~15 배 (fold)

Reference: KR20230066722A (dated 2023)
